Data from article doi:10.1101/2021.04.15.439997.

What was measured:
[1] = target: Strep-tagged glucose-6-phosphate dehydrogenase (G6PDH) from Synechocystis (Synechocystis sp. PCC 6803) (UniProt P73411)
[2] = target: Strep-tagged glucose-6-phosphate dehydrogenase (G6PDH) from Synechocystis (Synechocystis sp. PCC 6803) (UniProt P73411); experiment: SEC-MALS

Strep-tagged glucose-6-phosphate dehydrogenase (G6PDH) from Synechocystis (Synechocystis sp. PCC 6803), sequence (P73411 whole entry): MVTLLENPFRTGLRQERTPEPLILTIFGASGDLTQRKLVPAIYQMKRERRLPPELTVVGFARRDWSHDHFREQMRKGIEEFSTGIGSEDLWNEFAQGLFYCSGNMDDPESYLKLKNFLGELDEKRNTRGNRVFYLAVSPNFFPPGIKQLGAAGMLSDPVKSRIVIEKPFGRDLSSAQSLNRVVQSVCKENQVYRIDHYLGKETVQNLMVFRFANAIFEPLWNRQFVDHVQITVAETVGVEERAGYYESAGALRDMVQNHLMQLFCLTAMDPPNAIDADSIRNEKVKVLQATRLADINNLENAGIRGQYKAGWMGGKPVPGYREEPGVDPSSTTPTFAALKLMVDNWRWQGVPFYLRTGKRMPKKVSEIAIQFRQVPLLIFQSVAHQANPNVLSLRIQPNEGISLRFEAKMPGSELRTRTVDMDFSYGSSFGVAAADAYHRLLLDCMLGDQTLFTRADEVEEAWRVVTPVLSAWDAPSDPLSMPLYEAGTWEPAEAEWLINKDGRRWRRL

- G6PDH activity after pre-incubation of OpcA with DTTred, compared to the control [1]: 30%
- G6PDH activity after pre-incubation of OpcA with Synechocystis thioredoxin TxrA [1]: 10%
- G6PDH enzyme kinetics: substrate affinity with OpcA added [1]: 6 fold
- stoichiometry N (subunits of OpcA per G6PDH tetramer) [2]: 4
Substance: Strep-tagged oxidative pentose phosphate cycle protein (OpcA) from Synechocystis (natural protein)
